Consider 141 substances from the supplement of paper PMC12042874.

This data set can be described thus: amyloid nucleation score (Sup35N fusion, yeast selection) (log enrichment); library NNK2; higher = more nucleation; inactive = no reads after selection. The gist of the method: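 Three technical output replicates were used for random libraries. Psi-negative yeast expressing peptides of 20 random codons fused to Sup35N were induced with 100 μM copper sulfate for 24 hours and grown 7 days at 30°C on medium lacking adenine and uracil, and input and output plasmid inserts were Illumina-sequenced, excluding sequences with under 100 input reads. The nucleation score is the DiMSum log enrichment of output over input reads, centred on the mode score of non-aggregating sequences.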

± gives the uncertainty stated by the source.

For YFSCEFDTYHGEYCCMWQIM, the amyloid nucleation score came out at 0.069 ± 0.8.

As for DVHNMGSPGVLAMLVTSDGK, the amyloid nucleation score was determined as 0.876 ± 0.74.

CSHPFDYVQTILRTVTLFLI yielded an amyloid nucleation score of -0.114 ± 0.63.

Substance LLDLALRLTMGLITKHEANK returned an amyloid nucleation score of 3.61 ± 0.064.

In the case of VFIVYLWWTLRSWHIRVLIS, the amyloid nucleation score is -0.52 ± 1.1.

Substance RDLDY displayed an amyloid nucleation score of -1.27 ± 0.75.

YGPLNFDTSP yielded an amyloid nucleation score of 0.74 ± 0.16.

In turn, HVAESHMS gave an amyloid nucleation score of 1.16 ± 0.43.

FMRQMLLVLMPWCQRRWACL: the amyloid nucleation score is -0.382 ± 0.32.

Substance FIADYYGGKTHGNLMSALTC displayed an amyloid nucleation score of 1.06 ± 0.53.

TLSSYLVALNQRGAGSLWYV displayed an amyloid nucleation score of 0.825 ± 0.8.

Substance ISTYSMYACFKMSL yielded an amyloid nucleation score of 4.88 ± 0.1.

For MYEAAGSDREVLRKYEHSSV, the amyloid nucleation score is -0.22 ± 0.4.

For NMIVYC, the amyloid nucleation score result was “inactive”.

Consider CRWISTTLIFARCELFRLAV, for which the amyloid nucleation score is 0.567 ± 0.38.

On to GMVAICFYHM, for which the amyloid nucleation score worked out at 6.05 ± 0.046.

Turning to WFPLGQHEKAEILSLMIVDR, the amyloid nucleation score is -0.154 ± 0.49.

Substance FVTFWDYWSSRGDPMMSYRV returned an amyloid nucleation score of 0.13 ± 0.49.

Substance LGVESTCRSWFMFLGTQRIA displayed an amyloid nucleation score of -0.342 ± 1.

Take VNWGNGVFAGFLWYYVRPCH: the amyloid nucleation score is -1.03 ± 1.1.

On to PGNNMLFMWYHWGLGCNFLM, for which the amyloid nucleation score is -0.059 ± 0.79.

NEENVEVFCYRVSGSYRCYQ returned an amyloid nucleation score of 4.36 ± 0.094.

Regarding LFINNDTNDNYH, the amyloid nucleation score is -1.18 ± 0.47.

IVLEMLKVTRVGPKQIGWPW had an amyloid nucleation score of 0.696 ± 0.38.

HVVMFS returned an amyloid nucleation score of -0.38 ± 0.76.

With SYWKTSKCMTKLLGCNM, the amyloid nucleation score is -0.243 ± 0.45.

LLICDSMHHTM: the amyloid nucleation score worked out at 0.275 ± 0.48.

Substance TKNACMPRGQGRMAPLRCCL came in with an amyloid nucleation score of 0.857 ± 0.51.

With EDITI, the amyloid nucleation score is -1.67 ± 0.41.

With ILLINCMFNQYSGC, the amyloid nucleation score came to 7.894 ± 0.075.

Substance CKWWGRGEGDIVVLWLSEKL displayed an amyloid nucleation score of 0.942 ± 0.66.

On to FLVYTWSFRNSCRPDLKVVE, for which the amyloid nucleation score stood at 0.126 ± 0.8.

Take SGSGGSSLLFTIGEQGRRRI: the amyloid nucleation score was -0.876 ± 0.45.

MNYRCKYAQDTHLSEQSSQE gave an amyloid nucleation score of -0.799 ± 0.33.

Take KTPVGYTRRGSPFTR: the amyloid nucleation score came out at 1.16 ± 0.33.

With FQIMKAYDTLPFLVYPVTGD, the amyloid nucleation score is -0.117 ± 0.79.

YHYANDMFFN had an amyloid nucleation score of -0.727 ± 0.56.

Substance QHVGDSWMSSVNLGVLRVRL came in with an amyloid nucleation score of 0.055 ± 0.35.

In turn, YRWVRVSNRGCRTNMIKYMS returned an amyloid nucleation score of -1.66 ± 0.36.

The substance GFEWSLSRIDLCSGFGLGAG yielded an amyloid nucleation score of 1.24 ± 0.29.

The substance GYGVAWLYGISDSVRLRAPY showed an amyloid nucleation score of 0.335 ± 0.42.

The substance KDLPFGTYGNGGAGSRTMRH displayed an amyloid nucleation score of 0.19 ± 0.27.

The substance CKTTQDSDITCK returned an amyloid nucleation score of -0.747 ± 0.79.

Consider NFIDRQLSILYMMFLITEC, for which the amyloid nucleation score was -0.774 ± 1.1.

As for RRRVDSLIFYIKMRVLFNMF, the amyloid nucleation score result is “inactive”.

As to CLKFFADGSQAGCSERAGLR, the amyloid nucleation score worked out at 0.041 ± 0.28.

As to CVRCTFCIVSVICFSIYLSE, the amyloid nucleation score was -0.448 ± 0.55.

FIGCKEHNILNSMKRVD showed an amyloid nucleation score of -0.594 ± 1.1.

Substance VLFCL had an amyloid nucleation score of -0.806 ± 0.48.

In turn, KGLWTISVSLWVV displayed an amyloid nucleation score of 0.112 ± 0.18.

As for GESEVLSRRRQFFGRLWVCM, the amyloid nucleation score entry is “inactive”.

Consider IISYEVWSPQQGDLNSHHCL, for which the amyloid nucleation score result is “inactive”.

LNLMVTW: the amyloid nucleation score is -0.926 ± 0.78.

For NISSLSNNARVIVYFCVRYQ, the amyloid nucleation score entry was “inactive”.

Consider VKEGSLCFYMRRRTGQL, for which the amyloid nucleation score is -0.627 ± 0.76.

As to VEARKLYQCMCVVRC, the amyloid nucleation score was -0.143 ± 0.28.

On to KQFDMDAWLTWSRMVFMSPV, for which the amyloid nucleation score is 0.044 ± 0.39.

In the case of KNTMIGSLRLVIYFSSGDKV, the amyloid nucleation score came out at 7.17 ± 0.034.

On to LIDNFS, for which the amyloid nucleation score was -0.351 ± 0.45.

YLKGNIKATVFTNSPMLV gave an amyloid nucleation score of -0.085 ± 0.79.

The substance SLNSGFRDPIYWSVLRRSPS displayed an amyloid nucleation score of 6.81 ± 0.086.

In turn, HRNNQMQCVFAFLW registered an amyloid nucleation score of 7.199 ± 0.053.

On to FYYVFYLNSLAVAGHLRILD, for which the amyloid nucleation score result was “inactive”.

As for KVYSKCFNGFRS, the amyloid nucleation score turned out to be 0.164 ± 0.8.

With GVRAGACLGNGSVYSSGGRF, the amyloid nucleation score entry was “inactive”.

Substance TSVNSILRYFRSRAMLKQGS yielded an amyloid nucleation score of 1.11 ± 0.45.

For RITWFVIFIHCCKGLIR, the amyloid nucleation score was -0.369 ± 0.54.

As to YVRMMTNSTLLGRGLKYLCV, the amyloid nucleation score is 0.429 ± 0.62.

Take SIQLRVK: the amyloid nucleation score result is “inactive”.

Substance WTDTGMTYLFCNLFWLACGI gave an amyloid nucleation score of 5.634 ± 0.03.

RVDFFRFSVQSESWSVLH came in with an amyloid nucleation score of 0.334 ± 0.35.

With LFACFRNMLV, the amyloid nucleation score is 0.504 ± 0.39.

The substance VSVRGTHVL came in with an amyloid nucleation score of -0.28 ± 0.61.

RQEINSYGNTPRRGGPRLRH showed an amyloid nucleation score of -0.093 ± 0.55.

Regarding ANYMRYYSGLICFTESRYMS, the amyloid nucleation score was determined as 1.5 ± 0.17.

NSVDTTCAL came in with an amyloid nucleation score of 1.04 ± 0.41.

For LQVLARVDRLSHPGR, the amyloid nucleation score came out at 0.636 ± 0.81.

Turning to RLSVA, the amyloid nucleation score is 1.24 ± 0.26.

SSTFCS returned an amyloid nucleation score of 0.405 ± 0.64.

As for IRLVHSNVEIWGSDLVFHRG, the amyloid nucleation score was 6.196 ± 0.04.

In the case of CQMYYFYFNLLMWDMA, the amyloid nucleation score result was “inactive”.

In turn, IVARHPIGFQLVWGHWLTVA showed an amyloid nucleation score of 0.412 ± 0.26.

Turning to ARLLTRNINESNRFI, the amyloid nucleation score was found to be 0.065 ± 0.28.

TLYQCEEDMSGYDNVNDLAY yielded an amyloid nucleation score of -0.331 ± 0.27.

On to VSMLISTTPAYIIRQFKGLW, for which the amyloid nucleation score was 1.09 ± 0.68.

LTSWKDFRHN came in with an amyloid nucleation score of 0.4 ± 0.5.

PSSSVCNINCYSKRSDRSVV registered an amyloid nucleation score of -0.09 ± 0.63.

Consider TPLYFRYVTIHYRGHVKVDV, for which the amyloid nucleation score amounted to 0.688 ± 0.81.

In the case of PGSLSLIINIKCTTAKDRTL, the amyloid nucleation score turned out to be 2.79 ± 0.13.

In the case of AQCAYTTDGFPFLCWRSGTF, the amyloid nucleation score was 0.701 ± 0.6.

In the case of NLSFLEPLYWNEVSYFVRCC, the amyloid nucleation score was 6.369 ± 0.023.

In the case of NGVDMVVAAGLSGCRWGRIR, the amyloid nucleation score was 0.249 ± 0.39.

In turn, LDGITSIDG displayed an amyloid nucleation score of -1.15 ± 0.74.

As to TSLFVLVVGLGLCK, the amyloid nucleation score turned out to be 2.91 ± 0.19.

As for INSPSYDNILMSTSSANMKR, the amyloid nucleation score entry was “inactive”.

For TNSYANMSGTAGNYRSYNIA, the amyloid nucleation score is -0.522 ± 0.63.

As for IQTNVYWGISCCVSLSLSGL, the amyloid nucleation score amounted to 9.549 ± 0.022.

The substance SRERPHFPLLIPGENMIMLM yielded an amyloid nucleation score of 1.04 ± 0.1.

IRRGTYNFLMFQKDSFEYVS: the amyloid nucleation score is 0.536 ± 0.62.

Substance EMVRTTMSWPYMFS returned an amyloid nucleation score of -0.47 ± 1.1.

On to KYSNVTCWFSDHLGWRFHTF, for which the amyloid nucleation score entry is “inactive”.

Substance ITFFLRDMIAC registered an amyloid nucleation score of -0.907 ± 1.

MDSIHFV displayed an amyloid nucleation score of -0.029 ± 0.41.

Take IKERGLCRWMYARFKGKSAI: the amyloid nucleation score entry is “inactive”.

RTVRTAAMLTCGW yielded an amyloid nucleation score of 0.855 ± 0.48.

Substance GPRSPAA yielded an amyloid nucleation score of 0.613 ± 0.34.

In the case of ARQDYWIRWLTALSMMYGSG, the amyloid nucleation score was -0.071 ± 0.31.

Substance LLTNAVRGLG came in with an amyloid nucleation score of 0.302 ± 0.56.

On to LDIYYMMYYFRFSWD, for which the amyloid nucleation score was -2.64 ± 0.75.

As to LTNEI, the amyloid nucleation score was -0.515 ± 1.

Consider SGSRYAIVSYG, for which the amyloid nucleation score was -0.139 ± 0.53.

In turn, GFSSHSSFNHTI showed an amyloid nucleation score of 1.37 ± 0.32.

VMWDRRHFMAVSSDLEDKTR came in with an amyloid nucleation score of 0.438 ± 0.16.

Consider VMRHERTNFIYSKWWGFVEE, for which the amyloid nucleation score was -0.011 ± 0.65.

For the substance HSYITG, the amyloid nucleation score came out at 0.018 ± 0.19.

Take LCYGFEYHVDGLYNVSYESS: the amyloid nucleation score was 0.298 ± 0.37.

The substance TPDAGMWNYECYIVTVW had an amyloid nucleation score of -0.615 ± 0.49.

Substance IGTNSGAINSVSHGLLAGYG gave an amyloid nucleation score of 1.24 ± 0.47.

Regarding VIYFHHVTYSIYPLL, the amyloid nucleation score is 0.561 ± 0.62.

In turn, IGISYCSRRVIFHGTRKTHS yielded an amyloid nucleation score of -0.034 ± 0.28.

RFYKSNGPRF had an amyloid nucleation score of -1.28 ± 0.78.

LHFQYERSWNARSTLM came in with an amyloid nucleation score of 4.08 ± 0.076.

Regarding GTAYAHFFEVNFTSKLLAEF, the amyloid nucleation score was 1.76 ± 0.18.

In turn, VRTTYYNELETFLVLTPAMR gave an amyloid nucleation score of 1.36 ± 0.22.

The substance SGLVVMRLLFLRGY showed an amyloid nucleation score of -0.558 ± 0.54.

With VYQMCFMAILVIRIVR, the amyloid nucleation score worked out at 0.439 ± 0.25.

Turning to CKVSVDN, the amyloid nucleation score was 0.011 ± 0.36.

For the substance ISWVLRCQSKSRWLIQ, the amyloid nucleation score was determined as 0.627 ± 0.57.

QVLLFQWLSGDYQMIKMMRW returned an amyloid nucleation score of -0.207 ± 0.45.

The substance FREGSSIGFVLPTENVLMT showed an amyloid nucleation score of 0.256 ± 1.

For the substance IIKLRFFWYYNLLNQYLGFR, the amyloid nucleation score entry was “inactive”.

In the case of VVWEYIRYRCCTYDAVYTRS, the amyloid nucleation score came out at 0.522 ± 0.74.

On to RLAFSKE, for which the amyloid nucleation score is -0.065 ± 0.46.

QTNYEAHFDRVINYAFVHLF yielded an amyloid nucleation score of -0.392 ± 0.79.

FLVFVLLGDR gave an amyloid nucleation score of 6.23 ± 0.07.

As for FYWAKPSHWAPGFINGQDVL, the amyloid nucleation score is -1.19 ± 0.54.

Take VRSPCVDVYFPYSLVLDMCL: the amyloid nucleation score is 0.614 ± 0.62.

For RSVACVDDMHE, the amyloid nucleation score stood at 4.916 ± 0.049.

As for DVYSSVRVNYT, the amyloid nucleation score is -0.386 ± 0.56.

CGWTDFMMYTWTEIMQIQLR displayed an amyloid nucleation score of -1.03 ± 0.76.

The substance TMYYRNRGLVSEPKNYNGNE showed an amyloid nucleation score of -0.246 ± 0.61.
